Results from the supplement of paper PMC11246515.
± gives the standard deviation of the averaged measurements.

Experiment: total protein half-life in vivo (active degradation + dilution); higher = more stable protein
[1] = E. coli NCM3722 delta-clpP delta-lon delta-hslV, growth: N-lim chemostat, doubling time 6 h
[2] = E. coli NCM3722 delta-clpP, growth: N-lim chemostat, doubling time 6 h
[3] = E. coli NCM3722 delta-smpB, growth: N-lim chemostat, doubling time 6 h
[4] = wild type E. coli NCM3722, growth: N-lim chemostat, doubling time 6 h
[5] = wild type E. coli NCM3722, growth: P-lim chemostat, doubling time 6 h
[6] = wild type E. coli NCM3722, growth: P-lim chemostat, doubling time 12 h
[7] = E. coli NCM3722 delta-hslV, growth: N-lim chemostat, doubling time 6 h
[8] = E. coli NCM3722 delta-lon, growth: N-lim chemostat, doubling time 6 h
[9] = wild type E. coli NCM3722, growth: C-lim chemostat, doubling time 3 h
[10] = wild type E. coli NCM3722, growth: C-lim chemostat, doubling time 6 h
[11] = wild type E. coli NCM3722, growth: C-lim chemostat, doubling time 12 h
[12] = wild type E. coli NCM3722, growth: N-lim chemostat, doubling time 12 h

Sequence | total protein half-life in vivo [1] [h] | total protein half-life in vivo [2] [h] | total protein half-life in vivo [3] [h] | total protein half-life in vivo [4] [h] | total protein half-life in vivo [5] [h] | total protein half-life in vivo [6] [h] | total protein half-life in vivo [7] [h] | total protein half-life in vivo [8] [h] | total protein half-life in vivo [9] [h] | total protein half-life in vivo [10] [h] | total protein half-life in vivo [11] [h] | total protein half-life in vivo [12] [h]
MRFAIVVTGPAYGTQQASSAFQFAQALIADGHELSSVFFYREGVYNANQLTSPASDEFDLVRAWQQLNAQHGVALNICVAAALRRGVVDETEAGRLGLASSNLQQGFTLSGLGALAEASLTCDRVVQF | 5.11 | 4.58 | 3.44 | 4.52 | 6.11 | > 16 | – | – | – | – | – | –
MLELLFLLLPVAAAYGWYMGRRSAQQNKQDEANRLSRDYVAGVNFLLSNQQDKAVDLFLDMLKEDTGTVEAHLTLGNLFRSRGEVDRAIRIHQTLMESASLTYEQRLLAIQQLGRDYMAAGLYDRAEDMFNQLTDETDFRIGALQQLLQIYQATSEWQKAIDVAERLVKLGKDKQRVEIAHFYCELALQHMASDDLDRAMTLLKKGAAADKNSARVSIMMGRVFMAKGEYAKAVESLQRVISQDRELVSETLEMLQTCYQQLGKTAEWAEFLQRAVEENTGADAELMLADIIEARDGSEAAQVYITRQLQRHPTMRVFHKLMDYHLNEAEEGRAKESLMVLRDMVGEKVRSKPRYRCQKCGFTAYTLYWHCPSCRAWSTIKPIRGLDGL [P0AB58] | 5.9 ± 0.22 | – | 6.039 ± 0.011 | 6.101 ± 0.027 | 5.63 ± 0.45 | 12.5 ± 0.6 | 6.34 ± 0.37 | 6.43 ± 0.094 | 3.1 ± 0.047 | 5.91 ± 0.073 | 12.2 ± 0.99 | 15.2 ± 0.67
MATIKDVARLAGVSVATVSRVINNSPKASEASRLAVHSAMESLSYHPNANARALAQQTTETVGLVVGDVSDPFFGAMVKAVEQVAYHTGNFLLIGNGYHNEQKERQAIEQLIRHRCAALVVHAKMIPDADLASLMKQMPGMVLINRILPGFENRCIALDDRYGAWLATRHLIQQGHTRIGYLCSNHSISDAEDRLQGYYDALAESGIAANDRLVTFGEPDESGGEQAMTELLGRGRNFTAVACYNDSMAAGAMGVLNDNGIDVPGEISLIGFDDVLVSRYVRPRLTTVRYPIVTMATQAAELALALADNRPLPEITNVFSPTLVRRHSVSTPSLEASHHATSD | 5.91 ± 1.8 | – | 2.572 ± 0.0072 | 2.8 ± 0.21 | 3.26 ± 0.047 | 6.28 ± 0.3 | 3.24 ± 0.35 | 2.72 ± 0.32 | 2.29 ± 0.2 | 4.35 ± 0.17 | 7.06 ± 0.13 | 3.77 ± 0.39
MEKKLPRIKALLTPGEVAKRSGVAVSALHFYESKGLITSIRNSGNQRRYKRDVLRYVAIIKIAQRIGIPLATIGEAFGVLPEGHTLSAKEWKQLSSQWREELDRRIHTLVALRDELDGCIGCGCLSRSDCPLRNPGDRLGEEGTGARLLEDEQN [P0ACS2] | 4.33 ± 0.31 | 1.34 | 1.49 | 1.33 | – | – | – | 2.45 | – | 2.35 | 3.19 ± 0.38 | –
MSQTSTLKGQCIAEFLGTGLLIFFGVGCVAALKVAGASFGQWEISVIWGLGVAMAIYLTAGVSGAHLNPAVTIALWLFACFDKRKVIPFIVSQVAGAFCAAALVYGLYYNLFFDFEQTHHIVRGSVESVDLAGTFSTYPNPHINFVQAFAVEMVITAILMGLILALTDDGNGVPRGPLAPLLIGLLIAVIGASMGPLTGFAMNPARDFGPKVFAWLAGWGNVAFTGGRDIPYFLVPLFGPIVGAIVGAFAYRKLIGRHLPCDICVVEEKETTTPSEQKASL [P0AER0] | – | – | – | – | – | – | – | – | 2.07 | 4.17 | 6.363 ± 0.04 | –
MITHISPLGSMDMLSQLEVDMLKRTASSDLYQLFRNCSLAVLNSGSLTDNSKELLSRFENFDINVLRRERGVKLELINPPEEAFVDGRIIRALQANLFAVLRDILFVYGQIHNTVRFPNLNLDNSVHITNLVFSILRNARALHVGEAPNMVVCWGGHSINENEYLYARRVGNQLGLRELNICTGCGPGAMEAPMKGAAVGHAQQRYKDSRFIGMTEPSIIAAEPPNPLVNELIIMPDIEKRLEAFVRIAHGIIIFPGGVGTAEELLYLLGILMNPANKDQVLPLILTGPKESADYFRVLDEFVVHTLGENARRHYRIIIDDAAEVARQMKKSMPLVKENRRDTGDAYSFNWSMRIAPDLQMPFEPSHENMANLKLYPDQPVEVLAADLRRAFSGIVAGNVKEVGIRAIEEFGPYKINGDKEIMRRMDDLLQGFVAQHRMKLPGSAYIPCYEICT [P0ADR8] | 5.75 ± 1.1 | 4.95 ± 0.11 | 4.58 ± 0.19 | 5.07 ± 0.029 | 5.93 ± 0.55 | 11.9 ± 0.48 | 5.02 ± 0.07 | 5.1 ± 0.26 | 3.03 ± 0.13 | 6.01 ± 0.13 | 11.3 ± 0.31 | 9.48 ± 0.11
MDHSLNSLNNFDFLARSFARMHAEGRPVDILAVTGNMDEEHRTWFCARYAWYCQQMMQARELELEH | 2.86 | – | – | – | – | – | – | – | – | – | – | –
MKQSHFFAHLSRLKLINRWPLMRNVRTENVSEHSLQVAMVAHALAAIKNRKFGGNVNAERIALLAMYHDASEVLTGDLPTPVKYFNSQIAQEYKAIEKIAQQKLVDMVPEELRDIFAPLIDEHAYSDEEKSLVKQADALCAYLKCLEELAAGNNEFLLAKTRLEATLEARRSQEMDYFMEIFVPSFHLSLDEISQDSPL | 4.544 ± 0.041 | 4.34 ± 0.065 | 4.07 ± 0.4 | 4.16 ± 0.45 | 4.86 ± 0.56 | 9.76 ± 0.83 | 4.17 ± 0.19 | 5.57 ± 1.7 | 2.94 ± 0.21 | 5.64 ± 0.19 | – | 7.12 ± 0.38
MIYIGLPQWSHPKWVRLGITSLEEYARHFNCVEGNTTLYALPKPEVVLRWREQTTDDFRFCFKFPATISHQAALRHCDDLVTEFLTRMSPLAPRIGQYWLQLPATFGPRELPALWHFLDSLPGEFNYGVEVRHPQFFAKGEEEQTLNRGLHQRGVNRVILDSRPVHAARPHSEAIRDAQRKKPKVPVHAVLTATNPLIRFIGSDDMTQNRELFQVWLQKLAQWHQTTTPYLFLHTPDIAQAPELVHTLWEDLRKTLPEIGAVPAIPQQSSLF | 4.97 ± 2.1 | 3.55 ± 0.26 | 2.97 ± 0.13 | 3.16 ± 0.033 | 5.33 ± 0.11 | 11.5 ± 0.46 | 2.76 ± 0.11 | 3.25 ± 0.55 | – | 4.28 | 8.14 ± 0.79 | 5.52
